Laboratory results from paper PMC4847171, “Structural model of FeoB, the iron transporter from Pseudomonas aeruginosa, predicts a cysteine lined, GTP-gated pore” (Bioscience Reports, 2016).
Values joined by “and” are separate entries in the source; they are usually repeats but may differ in a detail not shown here. Equal values may be shown once.

Columns and labels:
[1] = biological target: FeoB from Pseudomonas aeruginosa, histidine-tagged (Pseudomonas aeruginosa); experiment: native gel or EMSA; blue-native PAGE (NativePAGE Novex Bis-Tris 4%-12% gel, Coomassie blue G-250, 140 V for 2 h); purified FeoB solubilised with the polymer NV10
[2] = biological target: FeoB from Pseudomonas aeruginosa, histidine-tagged (Pseudomonas aeruginosa); experiment: AFM; AFM imaging in air of isolated FeoB diluted 10000-20000 times in 10 mM K-HEPES pH 7.0, 200 mM NaCl, 10 mM MgSO4, 0.05% C12E8, adsorbed on mica and dried; oligomeric state from molecular volumes
[3] = biological target: the molecule itself; experiment: native gel or EMSA; blue-native PAGE, same gel as FeoB; comparison proteins MexB and BSA

Molecule	stoichiometry N [1]	stoichiometry N [2]	stoichiometry N [3]
FeoB from Pseudomonas aeruginosa, histidine-tagged (natural protein)	3 and 6	3 and 6	
MexB, drug efflux transporter from Pseudomonas aeruginosa (natural protein) MSKFFIDRPIFAWVIALVIMLAGGLSILSLPVNQYPAIAPPAIAVQVSYPGASAETVQDTVVQVIEQQMNGIDNLRYISSESNSDGSMTITVTFEQGTDPDIAQVQVQNKLQLATPLLPQEVQRQGIRVTKAVKNFLMVVGVVSTDGSMTKEDLSNYIVSNIQDPLSRTKGVGDFQVFGSQYSMRIWLDPAKLNSYQLTPGDVSSAIQAQNVQISSGQLGGLPAVKGQQLNATIIGKTRLQTAEQFENILLKVNPDGSQVRLKDVADVGLGGQDYSINAQFNGSPASGIAIKLATGANALDTAKAIRQTIANLEPFMPQGMKVVYPYDTTPVVSASIHEVVKTLGEAILLVFLVMYLFLQNFRATLIPTIAVPVVLLGTFGVLAAFGFSINTLTMFGMVLAIGLLVDDAIVVVENVERVMAEEGLSPREAARKSMGQIQGALVGIAMVLSAVFLPMAFFGGSTGVIYRQFSITIVSAMALSVIVALILTPALCATMLKPIEKGDHGEHKGGFFGWFNRMFLSTTHGYERGVASILKHRAPYLLIYVVIVAGMIWMFTRIPTAFLPDEDQGVLFAQVQTPPGSSAERTQVVVDSMREYLLEKESSSVSSVFTVTGFNFAGRGQSSGMAFIMLKPWEERPGGENSVFELAKRAQMHFFSFKDAMVFAFAPPSVLELGNATGFDLFLQDQAGVGHEVLLQARNKFLMLAAQNPALQRVRPNGMSDEPQYKLEIDDEKASALGVSLADINSTVSIAWGSSYVNDFIDRGRVKRVYLQGRPDARMNPDDLSKWYVRNDKGEMVPFNAFATGKWEYGSPKLERYNGVPAMEILGEPAPGLSSGDAMAAVEEIVKQLPKGVGYSWTGLSYEERLSGSQAPALYALSLLVVFLCLAALYESWSIPFSVMLVVPLGVIGALLATSMRGLSNDVFFQVGLLTTIGLSAKNAILIVEFAKELHEQGKGIVEAAIEACRMRLRPIVMTSLAFILGVVPLAISTGAGSGSQHAIGTGVIGGMVTATVLAIFWVPLFYVAVSTLFKDEASKQQASVEKGQ			2 and 3
